# Laboratory results published in paper PMC12422955 (Nature, 2025).
# B1: recombinant homomeric GluA4 receptor (C-terminal GFP and Strep tag) (receptor, UniProt P19493 21-902, looked up)
# chain: GAFPSSVQIGGLFIRNTDQEYTAFRLAIFLHNTSPNASEAPFNLVPHVDNIETANSFAVTNAFCSQYSRGVFAIFGLYDKRSVHTLTSFCSALHISLITPSFPTEGESQFVLQLRPSLRGALLSLLDHYEWNCFVFLYDTDRGYSILQAIMEKAGQNGWHVSAICVENFNDVSYRQLLEELDRRQEKKFVIDCEIERLQNILEQIVSVGKHVKGYHYIIANLGFKDISLERFIHGGANVTGFQLVDFNTPMVTKLMDRWKKLDQREYPGSETPPKYTSALTYDGVLVMAETFRSLRRQKIDISRRGNAGDCLANPAAPWGQGIDMERTLKQVRIQGLTGNVQFDHYGRRVNYTMDVFELKSTGPRKVGYWNDMDKLVLIQDMPTLGNDTAAIENRTVVVTTIMESPYVMYKKNHEMFEGNDKYEGYCVDLASEIAKHIGIKYKIAIVPDGKYGARDADTKIWNGMVGELVYGKAEIAIAPLTITLVREEVIDFSKPFMSLGISIMIKKPQKSKPGVFSFLDPLAYEIWMCIVFAYIGVSVVLFLVSRFSPYEWHTEEPEDGKEGPSDQPPNEFGIFNSLWFSLGAFMQQGCDISPRSLSGRIVGGVWWFFTLIIISSYTANLAAFLTVERMVSPIESAEDLAKQTEIAYGTLDSGSTKEFFRRSKIAVYEKMWTYMRSAEPSVFTRTTAEGVARVRKSKGKFAFLLESTMNEYTEQRKPCDTMKVGGNLDSKGYGVATPKGSSLGNAVNLAVLKLNEQGLLDKLKNKWWYDKGECGSGGGDSKDKTSALSLSNVAGVFYILVGGLGLAMLVALIEFCYKSRAEAKRMKLTFSEATRNKARLSITGSVGENGRVLTPDCPKAVHTGTAIRQSSGLAVIASDLP
# notes: GluA4; also called recombinant GluA4; rGluA4-GFP; source: tsA201 cells (BacMam), digitonin-solubilised, purified (Strep-Tactin, SEC); not shown: GFP, C-terminal, kept
# Key:
# Conditions in all cases: both partners purified
# [1] = biological target: dNOE1–mScarlet (dimeric NOE1 construct, residues 205-481 with five GCN4 residues) (rat, UniProt Q62609 205-481); assay: SEC; FSEC of the dNOE1 construct alone, in the absence of a reducing agent
# [2] = biological target: T1, recombinant full-length NOE1–mScarlet-His (rat, UniProt Q62609 25-485); assay: SEC; FSEC, Superose 6 calibrated with mass markers; 5 nM full-length NOE1–mScarlet with 5–150 nM GluA4, or 1 nM with 1–100 nM CP-AMPARs; mScarlet fluorescence
# T1 construct: signal peptide in the construct; full-length rat NOE1, residues 1-485; Tag joined by an SG linker or an SG–HRV 3C site–AAAA motif; source: tsA201 cells (BacMam), secreted, purified (Ni-NTA, SEC); not shown: mScarlet, C-terminal, kept
# [3] = biological target: B1; assay: BLI; Octet RED384, 30 °C; Fc–dNOE1–mScarlet (20 μg/ml) captured on AMC biosensor; GluA4–GFP 0.78–50 nM; 20 mM Tris pH 8.0, 150 mM NaCl, 0.075% digitonin with 3 mM glutamate or 2 μM ZK and 10 μM (R,R)-2b; 1:1 binding model
# T1 sequence (Q62609 25-485): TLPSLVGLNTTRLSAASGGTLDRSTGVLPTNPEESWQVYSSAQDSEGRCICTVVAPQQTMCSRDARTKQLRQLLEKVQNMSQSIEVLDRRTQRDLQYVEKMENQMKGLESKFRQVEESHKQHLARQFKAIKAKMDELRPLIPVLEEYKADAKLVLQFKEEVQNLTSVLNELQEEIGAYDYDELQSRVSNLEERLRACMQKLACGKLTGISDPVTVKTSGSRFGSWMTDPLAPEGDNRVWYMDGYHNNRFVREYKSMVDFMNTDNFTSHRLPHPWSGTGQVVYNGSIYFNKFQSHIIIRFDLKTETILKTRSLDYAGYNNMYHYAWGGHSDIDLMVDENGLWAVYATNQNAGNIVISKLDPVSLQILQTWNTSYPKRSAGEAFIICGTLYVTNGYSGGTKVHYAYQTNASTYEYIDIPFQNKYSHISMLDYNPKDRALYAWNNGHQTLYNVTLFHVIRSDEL
binder,measurement,setting,value
"dNOE1–mScarlet (dimeric NOE1 construct, residues 205-481 with five GCN4 residues) (domain or fragment, Disulfide-linked dimer (non-reducing), glycosylated. The cystatin SN signal peptide is assumed cleaved after ...AVALA by convention, leaving G plus GCN4 LKQEI. C-terminal GSG-3C-AAAA-mScarlet-His …) GLKQEIDELQSRVSNLEERLRACMQKLACGKLTGISDPVTVKTSGSRFGSWMTDPLAPEGDNRVWYMDGYHNNRFVREYKSMVDFMNTDNFTSHRLPHPWSGTGQVVYNGSIYFNKFQSHIIIRFDLKTETILKTRSLDYAGYNNMYHYAWGGHSDIDLMVDENGLWAVYATNQNAGNIVISKLDPVSLQILQTWNTSYPKRSAGEAFIICGTLYVTNGYSGGTKVHYAYQTNASTYEYIDIPFQNKYSHISMLDYNPKDRALYAWNNGHQTLYNVTLFHVIR",stoichiometry N,[1],2
B1,stoichiometry N,[2],2 receptors per NOE1 tetramer
"Fc–dNOE1–mScarlet (Fc fusion, Disulfide-linked, glycosylated dimer. Mouse Fc carrier (before the coiled coil) and C-terminal mScarlet-His left out. The position of the five GCN4 residues relative to Fc is not given; they are …) LKQEIDELQSRVSNLEERLRACMQKLACGKLTGISDPVTVKTSGSRFGSWMTDPLAPEGDNRVWYMDGYHNNRFVREYKSMVDFMNTDNFTSHRLPHPWSGTGQVVYNGSIYFNKFQSHIIIRFDLKTETILKTRSLDYAGYNNMYHYAWGGHSDIDLMVDENGLWAVYATNQNAGNIVISKLDPVSLQILQTWNTSYPKRSAGEAFIICGTLYVTNGYSGGTKVHYAYQTNASTYEYIDIPFQNKYSHISMLDYNPKDRALYAWNNGHQTLYNVTLFHVIR",Kd,[3],~9.4 nM
